Data published in the RNAGym collection of RNA variant scans (doi:10.7554/elife.90254).

B1: LINE1-full (parent)
chain: UACGUAGGUGGUUUUCCCCUGAUAGUGCUAAGGGGGCCUGGAAGUUUGGACUGGGCAGAGCUCAACACAGCGUGGCAAAGUGGCUGUGGCUAGACUGCCUCUCUGGAUUCCUCGUCACUCAGCAGGGCAUCUCUGAGAGAAAUGCC

Variants of: B1
Test: self-cleavage, relative activity (ratio to wild type); higher = more cleavage; in vitro, sequencing; the parent is a self-cleaving ribozyme

Variant | self-cleavage
U15C U73G | 1.18
U15A U26C | 0.86
C18A G36A | 1.12
C19U A24U | 1
C16U A124U | 0.88
U15C A59U | 0.94
U15C A59G | 0.1
U15C U45G | 1.2
U15C U45C | 1.55
U15C U45A | 1.49
U15C C76A | 1.2
U15A U39G | 1.02
U15C A57G | 1.06
U15C A57C | 0.09
U15C A57U | 0.11
C19A A142U | 1.36
U15A U130C | 0.67
C16U U132A | 1.41
C17U U104A | 0.95
U15C A129G | 1.54
U15C U119C | 1.75
U15C G33A | 1.05
U15A U87G | 0.2
U15C G144A | 1.04

Variant | self-cleavage
C19A U52C | 0.51
C16A A79G | 0.62
U15C C61U | 0.05
C16A C38U | 1.45
C19A U46C | 1.22
C18U A124U | 1.27
C17U A59U | 0.51
C18U C113U | 0.75
U15A U112A | 1.53
U15A U112C | 1.51
C19U A43G | 0.62
C18A U115G | 0.99
C19U C76U | 1.64
C18A A69C | 0.13
C19A A57G | 1.11
U15C C120U | 1.72
U15C U108C | 1.99
U15C U108A | 2.1
U15C A136U | 1.41
U15C A50C | 2.42
U15C A50G | 1.11
U15A U102A | 1.05
U15A U102C | 1.15
C16U A79U | 1.54

Variant | self-cleavage
C16U A79G | 0.9
C18A C123U | 1.31
C18A A77U | 0.97
C18A G88U | 0.12
U15C G49A | 1.21
U15C C28U | 2.35
C19U A77G | 1.68
U15A G60U | 0.07
C19G U62A | 0.03
C17U A140G | 1.02
U15C A140U | 1.61
U15G | 1.06
U15C | 1.42
C16U A140G | 0.99
C18U G139U | 1.11
C17U U26C | 0.6
C19U A121C | 1.02
C19A U102C | 1.76
C16U A64G | 0.09
U15C A138G | 1.49
U15C A138U | 1.86
U15C A138C | 1.59
C18A A94G | 0.22
C17U U20G | 0.57

Variant | self-cleavage
C19A A107G | 1
U15A U104C | 1.06
U15C U130A | 1
U15C U130G | 1.49
U15A U46G | 0.85
U15G A78G | 0
U15C C95U | 0.28
C17U C131A | 1.58
C16A A107G | 0.87
C17G U143C | 1.09
C17U G72A | 1.05
C18U A67G | 0.44
U15C C133U | 1.51
U15C C133A | 1.27
C19U A140G | 0.92
C19U A140U | 0.82
C16U A129U | 1.36
C16U A129G | 1.25
U15C A117U | 1.58
U15C G137U | 1.26
C19U A78G | 1.24
C18U U85C | 0.12
C17U U112C | 1.49
C17U U112A | 0.9

Variant | self-cleavage
U15C C51A | 1.37
C17G A59U | 0.55
U15C U100C | 1.81
C19G C56U | 0.22
U15C C128U | 1.1
C19U A79G | 0.97
C19U A79U | 1.47
C17A U45C | 1.35
U15A G114U | 0.97
U15G A79G | 0
C16U U100C | 1.02
U15C A92U | 0.79
C16U G32A | 1
U15C G44A | 1.41
U15A U29C | 2.9
C19G A43G | 0.31
U15C A77U | 1.39
U15C A77G | 1.55
U15C A77C | 0.77
U15C C90U | 0.04
C17G U115C | 0.84
C16U A141G | 1.13
U15A G135A | 0.87
U15C U87A | 0.1

Variant | self-cleavage
U15C A124U | 1.32
U15C A124G | 1.39
U15C A124C | 0.86
U15A U119C | 0.19
U15C G75A | 1.28
C18A U109A | 1.71
U15C C66U | 0.04
C18U A24G | 1.01
U15A G72A | 0.92
U15C A30U | 0.5
C19A A69G | 0.42
U15C G32A | 0.93
U15C G32C | 1.16
U15A U91C | 0.44
C19G U85C | 0.24
C19A A136U | 0.59
C18U U143C | 1.11
U15G G44U | 0.96
U15C A141U | 1.58
U15A U134C | 1.19
C19U A64G | 0.25
U15A U20G | 0.68
C17U U96C | 0.1
C17A U132A | 1.17

Variant | self-cleavage
C18U U39C | 0.82
U15C U52A | 1.35
U15C U52C | 1.14
C17G U52C | 1.22
C18U U104C | 0.23
C19A U91C | 0.46
U15G A94U | 0.58
C18A U46C | 1.65
C17U U81A | 1.53
C19U A138G | 1.01
C19U A138U | 1.24
C17A A142C | 1.9
U15C G122A | 1.66
U15C G122U | 1.16
C16A A129U | 1.15
U15C G127A | 1.05
U15C G127U | 1.23
U15C A107G | 1.14
C16U U87A | 0.05
C17A A59U | 0.69
U15C G34C | 1.59
U15C G83A | 0.72
C17A G70U | 0.13
C18A U73C | 1.23

Variant | self-cleavage
C16U U104A | 1.12
C19A U62A | 0.05
C17U U143G | 1.43
C18U A129U | 0.56
C19A U112G | 0.85
C19A U112C | 1.55
C19U A31U | 1.35
U15G C118U | 0.97
U15A G53U | 0.72
U15C A64G | 0.36
U15C A64C | 0.64
U15G A129G | 0.61
U15C U143G | 2.03
U15C U143A | 1.55
U15C A79U | 1.88
C16A A124G | 0.4
C16A A141G | 1.35
C19A U100C | 0.9
C19A U100A | 0.51
C16U A121U | 1.36
C17A A79U | 0.87
C19U A67G | 0
U15C A69U | 0.09
U15C U109G | 0.84

Variant | self-cleavage
U15C U109C | 1.43
U15C U109A | 1.41
U15A G80A | 1.16
U15C U23C | 0.94
C19G A78G | 1.24
U15G G114A | 0.87
C17A A42G | 1.13
U15C G36C | 1.31
C16A A121U | 1.97
U15A U73A | 1.02
C16A U96C | 0.04
C16A U96G | 0.08
C16U U52C | 1.47
C17U A141G | 0
U15G G144A | 0.82
C19U C133A | 0.59
C19U A142G | 1.06
C18A U119C | 1.49
C18A A129G | 1.42
U15C A65U | 0.2
C19U A136U | 1.41
C16U A59U | 0.8
C18A A57G | 1.29
C16U U119A | 1.17

Variant | self-cleavage
U15C U115G | 1.07
U15C U115A | 1.59
C19U A94U | 0.14
C19U A94G | 0.29
C17U A30G | 1.44
U15C U62A | 0.07
U15C U62C | 0.09
U15C A78U | 2.44
U15C A78G | 1.34
C17G | 0.91
C17A | 1.27
C17U | 1.09
C19A U39A | 2.04
C18U U62C | 0.08
U15C A94U | 0.67
U15C C113U | 1.71
U15C U39A | 1.56
U15C U39G | 1.6
U15C A142C | 1.8
U15C A142G | 1.41
C16U U108A | 1.14
C18A U62C | 0.11
U15C G82A | 1.92
U15C G82U | 1.9

Variant | self-cleavage
U15C U134A | 1.04
C16U U39C | 1.35
C18U U73C | 1.53
C18U U73A | 1.78
C19U A57U | 0.13
C19U A57G | 0.88
C19U A117G | 1.49
U15C G74A | 1.4
U15A U132C | 0.98
C18U A142G | 1.27
C19U C123U | 1.58
C18U U81C | 0.84
U15G U115C | 0.84
U15A U52C | 0.9
U15A U52G | 1.23
C17U A138C | 1.12
U15C G114C | 1.59
U15C G114A | 0.71
U15A G58A | 0.09
U15A U45G | 0.73
U15G A69G | 0.95
C19G A117U | 1.69
U15A U100C | 0.91
U15G A50G | 0.18

Variant | self-cleavage
C16U U143A | 0.86
C17U U23G | 1.11
C17U U23C | 0.68
U15C U29C | 1.28
U15C U29A | 1.27
C19A U109A | 1.58
C18U U109A | 0.9
U15C U104A | 1.05
U15C U104C | 1.86
C19U A42C | 0.69
U15C U26A | 1.16
C18U U52A | 1.54
C19U A50G | 0.77
C16U U62C | 0.09
U15C A67G | 0.44
U15C C56A | 0.04
U15C C56U | 0.23
C19U A124G | 0.88
U15A U47C | 0.9
C17U U132C | 0.95
C19U A59G | 0.03
C17U A94G | 0.31
C17U A94U | 0.17
C19U C120U | 1.25

Variant | self-cleavage
U15C U46C | 1.31
C16U A142G | 0.96
C19U A22U | 1.11
C16A A117G | 1.01
U15C U91C | 0.77
U15C U91A | 0.81
C16U C131U | 1.8
U15A U143A | 1.09
U15C G125A | 0.87
U15C G125U | 0.82
C17U A124G | 0.47
U15C A22G | 1.24
C17A G35A | 0.81
U15C U102C | 1.46
C16U U112C | 1.71
C17A U134C | 1.11
C19A U85A | 0.14
U15G A43G | 0.5
C18U U87A | 0.08
C16A A22U | 1.21
C18U A117G | 1.72
U15A U115C | 1.09
U15C C99U | 0.55
C16A G32A | 0.77

Variant | self-cleavage
U15C C17G | 1.13
U15C C17U | 1.03
C19A U134C | 0.67
U15C G35A | 1.41
U15C G35U | 1.55
U15C U85C | 0.34
U15A U85C | 0.03
C18A G89A | 0.05
U15C G93U | 0.09
C17U U52G | 1.41
U15C C146U | 1.57
C18U A22U | 0.9
C17U U29C | 0.81
U15C G70A | 0.33
C18A G34A | 1.01
U15C U81G | 1.89
C18U A69G | 0.29
C18U U115C | 1.49
C19G A31G | 0.73
U15A U62C | 0
U15C C98U | 0.33
C19U C116U | 0.9
